IntAct's records for PubMed 17496148

B1: Anti-sigma-E factor RseA (Escherichia coli (strain K12)), P0AFX7 (parent)
chain: MQKEQLSALMDGETLDSELLNELAHNPEMQKTWESYHLIRDSMRGDTPEVLHFDISSRVMAAIEEEPVRQPATLIPEAQPAPHQWQKMPFWQKVRPWAAQLTQMGVAACVSLAVIVGVQHYNGQSETSQQPETPVFNTLPMMGKASPVSLGVPSEATANNGQQQQVQEQRRRINAMLQDYELQRRLHSEQLQFEQAQTQQAAVQVPGIQTLGTQSQ
partner: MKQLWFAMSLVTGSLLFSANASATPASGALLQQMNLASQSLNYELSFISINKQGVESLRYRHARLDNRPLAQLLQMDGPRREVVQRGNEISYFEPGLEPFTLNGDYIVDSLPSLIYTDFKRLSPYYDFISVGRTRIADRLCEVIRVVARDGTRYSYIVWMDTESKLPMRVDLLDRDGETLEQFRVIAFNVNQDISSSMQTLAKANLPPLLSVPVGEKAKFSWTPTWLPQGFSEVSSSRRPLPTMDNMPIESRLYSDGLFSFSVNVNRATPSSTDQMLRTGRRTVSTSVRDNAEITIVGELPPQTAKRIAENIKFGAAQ

Variants of: B1
Details: with rseb_ecoli rseB

Effect of a mutation on the interaction, disrupting interaction strength:
MQKEQLSALMDGETLDSELLNELAHNPEMQKTWESYHLIRDSMRGDTPEVLHFDISSRVMAAIEEEPVRQPATLIPEAQPAPHQWQKMPFWQKVRPWAAQLTQMGVAACVSLAVIVGVQHYNGQSETSQQPETPVFNTLPMMGKASPVSLGVPSEATANNGQQQQVQEQRRRINAMLQDYELQEELHSEQLQFEQAQTQQAAVQVPGIQTLGTQSQ [R184E;R185E]
MQKEQLSALMDGETLDSELLNELAHNPEMQKTWESYHLIRDSMRGDTPEVLHFDISSRVMAAIEEEPVRQPATLIPEAQPAPHQWQKMPFWQKVRPWAAQLTQMGVAACVSLAVIVGVQHYNGQSETSQQPETPVFNTLPMMGKASPVSLGVPSEATANNGQQQQVQEQREEINAMLQDYELQRRLHSEQLQFEQAQTQQAAVQVPGIQTLGTQSQ [R171E;R172E]
MQKEQLSALMDGETLDSELLNELAHNPEMQKTWESYHLIRDSMRGDTPEVLHFDISSRVMAAIEEEPVRQPATLIPEAQPAPHQWQKMPFWQKVRPWAAQLTQMGVAACVSLAVIVGVQHYNGQSETSQQPETPVFNTLPMMGKASPVSLGVPSEATANNGQQQQVQEQRAAINAMLQDYELQRRLHSEQLQFEQAQTQQAAVQVPGIQTLGTQSQ [R171A;R172A]
MQKEQLSALMDGETLDSELLNELAHNPEMQKTWESYHLIRDSMRGDTPEVLHFDISSRVMAAIEEEPVRQPATLIPEAQPAPHQWQKMPFWQKVRPWAAQLTQMGVAACVSLAVIVGVQHYNGQSETSQQPETPVFNTLPMMGKASPVSLGVPSEATANNGQQQQVQEQRRRINAMLQDYELQAALHSEQLQFEQAQTQQAAVQVPGIQTLGTQSQ [R184A;R185A]
